Tests used:
amyloid beta (1-42) = amyloid beta (1-42) (Homo sapiens, UniProt P05067); assay: Cu+++-induced aggregation of amyloid beta (1-42), light scattering 360 nm; format: biochemical; details: 100 mM Cu+++
Procedure: In vitro assays were also performed to measure the ability of the human αB crystallin derived peptides identified in Example 1 to inhibit aggregation of Cu^+++-induced amyloid beta (1-42) aggregation. Aggregation assays were performed using routine procedures, in the presence or absence of a synthesized peptide identified in Example 1, in the presence of 100 mM Cu^+++. Aggregation was measured spectrophotometrically as light scattering at a wavelength of 360 nm. Aggregated amyloid-beta was assigned a value of 100% aggregation and used to normalize aggregation in the presence of synthesize peptides.
Aggregation was measured spectrophotometrically as light scattering at a wavelength of 360 nm. Aggregated amyloid-beta was assigned a value of 100% aggregation and used to normalize aggregation in the presence of synthesize peptides. Aggregation was plotted as a bar graph with the standard error for duplicate experiments. The 1 st vertical bar is the scattering measured for aggregated amyloid-beta (100% aggregation) in the presence of 100 mM Cu^+++. The 2nd-4th vertical bars is the scattering from amyloid-beta in the presence of wild type recombinant human αB crystallin. The 5th-13th vertical bars are the scattering of amyloid-beta in the presence of the synthetic peptides, DRFSVNLDVKHFS or LTITSSLSDGV or HGKHEERQDE at selected concentrations. A prefix of 10× represents a 10:1 molar concentration of amyloid-beta to either wild type αB crystallin or its peptides. A prefix of 1× represents a 1:1 molar concentration of amyloid-beta to either wt αB crystallin or its peptides. A prefix of 0.1× represents a 1:10 molar concentration of amyloid-beta to either wt αB crystallin or its peptides.

beta amyloid = beta amyloid (Homo sapiens, UniProt P05067); assay: αB crystallin protein pin array, binding of beta amyloid; details: immobilized 8-mer peptide; absorption at 450 nm
From the text: αB Crystallin peptides that bind the target protein beta-amyloid were identified by screening an αB crystallin protein pin array, which provides a systematic method for evaluating interactions between peptides corresponding to residues 1-175 of human αB crystallin and selected target proteins in a parallel and simultaneous manner.
Peptides were synthesized on derivatized polyethylene pins arranged in a microtiter plate format. Each peptide was 8 amino acids in length and consecutive peptides were offset by 2 amino acids. All peptides were covalently bonded to the surface plastic pins. The first immobilized peptide was 1MDIAIHHP8 and the last peptide was 168PAVTAAPK175 for the human αB crystallin.
After synthesis, the pins were pre-coated at room temperature with 2% Bovine Serum Albumin (BSA), 0.1% Tween-20 and 0.1% Sodium azide in 10 mM phosphate buffered saline pH 7.2 (PBS) for 1 hr, and washed three times for 10 mins each with 10 mM PBS. To screen for binding to the peptides, fixed concentrations of the target protein beta amyloid was dissolved in 10 mM PBS, containing 0.05% Tween-20, added to each well and incubated for 1 hr at room temperature. The pin array was washed three times for 10 mins each with 10 mM PBS, containing 0.05% Tween-20. Monoclonal or polyclonal primary antibodies for the target protein beta amyloid was diluted into PBS buffer, added to each well and incubated for 1 hr at room temperature. Subsequently, the pin array was washed three times for 10 mins each with 10 mM PBS containing 0.05% Tween-20. Anti-rabbit horse-radish peroxidase conjugate secondary antibodies was diluted into PBS buffer, added to each well and incubated for 1 hr at room temperature. The pin array was washed three times for 10 mins each with 10 mM PBS containing 0.05% Tween-20. A chromogenic substrate of horse-radish peroxidase 3,3′,5,5′-Tetramethylbenzidine (TMB) (Pharmingen, San Diego, Calif.) which is colorless was added, and the reaction was carried out for 45 min.
The reaction was stopped by adding 6N sulfuric acid, which changes the color from blue to yellow. The absorption at 450 nm was measured by an ELISA reader (BioTek, Winooski, Vt.).
The pin array was regenerated by sonication in a water bath (VWR Aquasonic, West Chester, Pa.) with 100 mM PBS, containing 1% Sodium dodecyl sulfate (SDS) and 0.1% 2-Mercaptoethanol@60° C. for 10 mins. Next, the pin array was rinsed three times in deionized water, preheated to 60° C. for 30 secs each time, and shaken in water preheated at 60° C. for 30 min. The pin array was then washed with methanol at 60° C. for 15 secs and air-dried and stored @−20° C. for future use. Each target protein was assayed 2-5 times against the human αB crystallin protein pin array peptides to verify the reproducibility of the results. Peptides numbered 5, 7, 8, 9, 13, 19, 22, 23, 24, 27, 35, 38, 45, 51, 52, 56, 57, 61, 66, 71, 72, and 79 in Table 2 reproducibly tested positive in the protein pin assay.

[1] = 1:1 and 1:10 molar ratio of amyloid-beta to peptide
[2] = 10:1 molar ratio of amyloid-beta to peptide

Sequence	prevention of Cu+++-induced aggregation of amyloid-beta (amyloid beta (1-42); [1])	prevention of Cu+++-induced aggregation of amyloid-beta (amyloid beta (1-42); [2])	binding of beta amyloid in the protein pin assay (beta amyloid)
DRFSVNLDVKHFS	equally effective	less effective	
HGKHEERQDE	equally effective	less effective	
FSVNLDVK [Peptide 38]			positive
WIRRPFFP [Peptide 5]			positive
LTITSSLS [Peptide 66]			positive

Source: patent publication US20070185028A1, “Compositions and methods for treatment of protein misfolding and protein aggregation diseases” (priority 2004, published 2007)
